B1: SMTNL2 (parent)
chain: QKNFELAFTMAENLANCERLIEVE
B2: ZNF263 (parent)
chain: FGGNPRFLSLHRAHLGEEAHKCLE

Variants of: B1
Test: protein stability index of a GFP-peptide fusion (GPS, HEK-293T) (PSI 1-6); higher = more stable
Settings: c terminus: a fixed tail appended
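Further: lentivirally expressed fusions sorted by FACS into six bins by GFP to DsRed ratio, PSI derived from sequencing read proportions per bin multiplied by bin number.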

Protein stability index: each site, then its substitutions
Q1: K 2.58; Y 1.97; D 1.28; L 1.86; V 1.54; F 3.06; N 1.67; T 1.26; G 1.2; P 2.56
F8: N 2.06; W 1.48; E 3.82; P 4.98; H 2.33; V 2.12; Y 1.35; S 1.45; T 2.6; Q 3.61; C 1.07; G 4.29; D 4.41
N3: Y 1.96; V 3.1; M 3.62; S 1.78; T 2.09; Q 1.81; E 1.61; I 3.48; D 3.28; W 3.6; R 1.76
C17: K 3.5; A 2.16; H 3.37; F 2.14; Q 2.79; D 3.98; G 2.98; M 2.83; N 4.09; P 4.29; I 2.14
E12: Q 1.87; R 1.33; S 4; N 2.6; G 1.98; K 2.05; H 2.01; W 3.4; D 1.8; T 1.86; V 3.63; L 2.69; I 1.74; P 2.26
T9: A 1.37; N 2.37; G 2.02; W 2.96; I 3.12; K 1.39; S 1.98; Y 2.57; P 3.3; Q 1.89; H 1.96; E 2.9; C 2.03; R 1.13; D 2.74; V 2.5
L6: G 3.23; V 2.04; E 2.46; R 3.29; N 2.91; Q 2.54; P 3.62; H 2.55; S 2.19; A 3.32; I 2.12; K 2.65; T 2.01; F 1.91
L14: K 3.8; H 3.53; C 3.14; E 4.23; D 4.44; A 3.7; T 3.79; V 3.19; W 2.26; S 3.69; F 3.11; R 3.92; I 2.89; N 2.72; P 3.89; Q 3.98; Y 3.37; M 2.02
N16: C 1.85; K 3.84; I 2.83; R 1.44; E 2.89; F 1.36; M 1.34; L 2.73; V 2.61; Y 2.33; P 2.8; Q 2.33; W 3.51
A11: M 1.49; R 3.03; Q 1.62; K 2.29; W 2.75; D 3.85; H 3.39; P 3.85; E 3.78; S 2.79; N 2.82; I 4.18; G 2.04; C 3.46
M10: E 4.17; N 4.24; Y 3.45; I 1.57; W 1.41; A 3.87; F 3.08; T 3.66; V 3.29; P 3.66; C 3.37; Q 4.38; H 3.91; K 3.9; S 3.88; G 4.33; D 4.64; L 1.66; R 3.77
N13: Q 1.68; C 2.69; L 1.98; F 2.82; V 1.33; T 1.8; K 1.95; P 3.63; I 2.98; E 2.21; H 1.41; Y 2.99; R 1.67; S 2.33; W 2; G 2.19
A7: E 1.68; C 2.56; M 1.73; D 2.85; W 2.26; F 1.88; Y 2.08; P 3.32; T 2.2; V 1.77; H 2.16; K 2.98; L 1.22; Q 2.58; S 1.78
F4: Y 1.98; S 3.4; P 4.09; D 3.72; E 2.94; R 3.06; G 3.73; M 2.31; K 4.05; N 3.27; T 3.51; A 2.45; H 1.98; I 2.53; V 2.87
A15: M 1.92; I 1.87; F 1.45; C 2.46; G 2.67; Y 1.84; R 1.38; N 2.04; V 2.83; T 1.32; L 1.52; Q 1.42; H 2.1; E 3.11; P 2.93; S 1.46; D 3.49
K2: E 1.84; T 1.03; D 2.51; L 1.78; P 2.24; V 1.67; R 2.34; S 1.76; C 1.77; I 2.71; H 1.13; M 1.7; G 1.74
E5: K 2.24; H 1.96; S 1.39; L 1.72; R 3.01; D 1.59; N 2.96; G 2.52; Q 1.25; T 1.94; C 2.87; A 1.62

Variants of: B2
Test: as above
Settings: c terminus: a fixed tail appended

Protein stability index: each site, then its substitutions
L23: D 1.63; G 1.76; R 1.7; I 2.02; V 1.83; C 1.97; K 1.91; P 2.02; Q 1.92; E 1.97; F 1.8; Y 1.75; A 2.65; W 1.75; S 1.63; H 1.97; M 1.96; T 2.51; N 2.21
C22: Y 1.88; Q 2.66; R 1.75; K 2; D 2.15; L 1.38; A 1.78; F 1.74; H 2.44; M 1.74; S 3.62; I 1.59; E 2.19; P 2.44; V 2.51; G 1.62; N 2.17; W 1.46; T 1.47
K21: Q 2; L 2.14; S 1.85; M 2.76; R 1.05; N 2; H 1.89; Y 1.71; A 1.77; P 2.13; G 1.9; T 2.04; D 1.86; F 2.17; C 1.98; I 2.14; V 1.38; E 1.76; W 1.6
E24: K 1.76; C 2.15; N 1.48; W 3.02; H 1.69; I 1.51; P 1.63; F 1.7; S 2.75; R 1.75; D 1.71; M 2.31; T 1.56; A 1.77; Y 1.51; G 1.72; Q 2.37; L 2.52; V 2.88
H20: Q 1.04; I 1.4; R 1.66; N 1.49; E 2.13; Y 2.18; D 2.28; G 1.53; T 1.55; F 1.98; W 2.24; S 2.69; P 1.83; V 1.43; M 2.13; K 2.56; L 1.61

Reference: the supplement of paper PMC10567573
